# Experimental data from IntAct's records for PubMed 23481255.
# B1: ADP-ribose glycohydrolase OARD1 (Homo sapiens), Q9Y530 (parent)
# chain: MASSLNEDPEGSRITYVKGDLFACPKTDSLAHCISEDCRMGAGIAVLFKKKFGGVQELLNQQKKSGEVAVLKRDGRYIYYLITKKRASHKPTYENLQKSLEAMKSHCLKNGVTDLSMPRIGCGLDRLQWENVSAMIEEVFEATDIKITVYTL
# partner: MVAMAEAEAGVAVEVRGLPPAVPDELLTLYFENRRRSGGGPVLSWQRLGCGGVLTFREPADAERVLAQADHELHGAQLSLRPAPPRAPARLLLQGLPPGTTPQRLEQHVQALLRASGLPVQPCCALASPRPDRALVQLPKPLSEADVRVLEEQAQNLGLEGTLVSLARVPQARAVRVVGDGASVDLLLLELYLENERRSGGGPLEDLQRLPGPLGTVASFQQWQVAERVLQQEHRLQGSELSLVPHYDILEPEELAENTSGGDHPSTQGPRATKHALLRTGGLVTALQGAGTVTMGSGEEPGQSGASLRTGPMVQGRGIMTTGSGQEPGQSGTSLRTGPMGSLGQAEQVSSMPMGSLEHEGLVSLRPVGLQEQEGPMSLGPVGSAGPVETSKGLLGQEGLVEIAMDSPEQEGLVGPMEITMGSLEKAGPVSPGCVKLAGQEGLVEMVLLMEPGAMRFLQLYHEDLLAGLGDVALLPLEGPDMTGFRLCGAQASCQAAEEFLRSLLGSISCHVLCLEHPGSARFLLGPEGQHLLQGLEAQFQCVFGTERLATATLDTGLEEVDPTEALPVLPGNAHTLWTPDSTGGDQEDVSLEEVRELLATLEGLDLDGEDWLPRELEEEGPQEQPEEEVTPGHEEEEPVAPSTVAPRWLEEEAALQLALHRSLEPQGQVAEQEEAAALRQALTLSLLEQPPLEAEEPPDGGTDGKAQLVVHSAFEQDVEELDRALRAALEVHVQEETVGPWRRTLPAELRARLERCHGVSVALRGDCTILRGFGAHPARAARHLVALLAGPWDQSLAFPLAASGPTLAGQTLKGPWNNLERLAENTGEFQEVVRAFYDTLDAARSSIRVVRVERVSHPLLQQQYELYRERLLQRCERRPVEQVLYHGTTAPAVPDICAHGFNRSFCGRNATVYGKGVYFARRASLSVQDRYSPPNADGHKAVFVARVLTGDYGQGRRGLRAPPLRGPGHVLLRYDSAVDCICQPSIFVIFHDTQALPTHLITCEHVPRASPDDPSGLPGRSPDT
# B2: ADP-ribose glycohydrolase OARD1 (Homo sapiens), Q9Y530 (parent)
# chain: B1 chain
# Variants of: B1
# Conditions: with par10_human PARP10, Q53GL7
row,effect of a mutation on the interaction,Variant
1,disrupting interaction,MASSLNEDPEGSRITYVKGDLFACPKTDSLAHCISEDCRMGAGIAVLFKKKFGGVQELLNQQKKSGEVAVLKRDGRYIYYLITKKRASHKPTYENLQKSLEAMKSHCLKNGVTDLSMPRIGCGLARLQWENVSAMIEEVFEATDIKITVYTL

# Variants of: B1
# Conditions: with par10_human PARP10, Q53GL7
# Remark: another data set of the same source
row,effect of a mutation on the interaction,Variant
1,disrupting interaction,MASSLNEDPEGSRITYVKGDLFACPKTDSLAHCISEDCRMGAGIAVLFKKKFGGVQELLNQQKKSGEVAVLKRDGRYIYYLITAKRASHKPTYENLQKSLEAMKSHCLKNGVTDLSMPRIGCGLDRLQWENVSAMIEEVFEATDIKITVYTL

# Variants of: B2
# Conditions: with parp1_human PARP1, P09874
# Sequence of parp1_human PARP1, P09874 (P09874 whole entry): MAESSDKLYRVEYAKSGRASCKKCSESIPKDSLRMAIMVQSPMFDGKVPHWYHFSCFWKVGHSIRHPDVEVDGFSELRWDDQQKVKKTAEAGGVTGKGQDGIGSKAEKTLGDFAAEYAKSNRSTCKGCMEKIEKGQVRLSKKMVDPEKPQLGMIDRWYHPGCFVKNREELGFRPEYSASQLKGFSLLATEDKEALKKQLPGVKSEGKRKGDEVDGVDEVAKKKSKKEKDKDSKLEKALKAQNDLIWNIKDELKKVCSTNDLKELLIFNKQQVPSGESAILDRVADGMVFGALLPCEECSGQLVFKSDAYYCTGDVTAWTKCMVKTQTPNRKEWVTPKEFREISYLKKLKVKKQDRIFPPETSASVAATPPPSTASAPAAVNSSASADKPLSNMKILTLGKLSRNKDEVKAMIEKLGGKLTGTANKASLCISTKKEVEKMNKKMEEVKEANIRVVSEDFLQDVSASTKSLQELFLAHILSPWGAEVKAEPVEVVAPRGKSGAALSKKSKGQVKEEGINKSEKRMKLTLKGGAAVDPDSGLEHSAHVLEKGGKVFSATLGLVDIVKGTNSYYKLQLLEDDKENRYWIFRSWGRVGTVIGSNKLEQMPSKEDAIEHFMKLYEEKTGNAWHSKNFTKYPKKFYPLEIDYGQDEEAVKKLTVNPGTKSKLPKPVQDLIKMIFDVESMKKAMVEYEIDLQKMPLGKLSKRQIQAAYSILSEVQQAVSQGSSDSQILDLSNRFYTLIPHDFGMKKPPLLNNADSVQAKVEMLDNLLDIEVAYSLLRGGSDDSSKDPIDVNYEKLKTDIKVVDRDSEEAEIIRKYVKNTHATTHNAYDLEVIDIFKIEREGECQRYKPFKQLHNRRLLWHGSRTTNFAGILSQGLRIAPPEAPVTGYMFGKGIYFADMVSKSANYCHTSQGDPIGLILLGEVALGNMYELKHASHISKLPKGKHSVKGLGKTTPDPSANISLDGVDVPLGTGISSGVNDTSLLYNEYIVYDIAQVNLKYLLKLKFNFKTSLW
row,effect of a mutation on the interaction,Variant
1,disrupting interaction,MASSLNEDPEGSRITYVKGDLFACPKTDSLAHCISEDCRMGAGIAVLFKKKFGGVQELLNQQKKSGEVAVLKRDGRYIYYLITKKRASHKPTYENLQKSLEAMKSHCLKNGVTDLSMPRIGCGLARLQWENVSAMIEEVFEATDIKITVYTL

# Variants of: B2
# Conditions: with parp1_human PARP1, P09874
# Remark: another data set of the same source
row,effect of a mutation on the interaction,Variant
1,increasing interaction,MASSLNEDPEGSRITYVKGDLFACPKTDSLAHCISEDCRMGAGIAVLFKKKFGGVQELLNQQKKSGEVAVLKRDGRYIYYLITKKRASHKPTYENLQKSLEAMKSHCLKNGVTDLSMPRIGCGLARLQWENVSAMIEEVFEATDIKITVYTL

# Variants of: B2
# Conditions: with parp1_human PARP1, P09874
# Remark: another data set of the same source
row,effect of a mutation on the interaction,Variant
1,disrupting interaction,MASSLNEDPEGSRITYVKGDLFACPKTDSLAHCISEDCRMGAGIAVLFKKKFGGVQELLNQQKKSGEVAVLKRDGRYIYYLITKKRASHKPTYENLQKSLEAMKSHCLKNGVTDLSMPRIGCELDRLQWENVSAMIEEVFEATDIKITVYTL

# Variants of: B2
# Conditions: with parp1_human PARP1, P09874
# Remark: another data set of the same source
row,effect of a mutation on the interaction,Variant
1,disrupting interaction,MASSLNEDPEGSRITYVKGDLFACPKTDSLAHCISEDCRMGAGIAVLFKKKFGGVQELLNQQKKSGEVAVLKRDGRYIYYLITAKRASHKPTYENLQKSLEAMKSHCLKNGVTDLSMPRIGCGLDRLQWENVSAMIEEVFEATDIKITVYTL

# Variants of: B2
# Conditions: with parp1_human PARP1, P09874
# Remark: another data set of the same source
row,effect of a mutation on the interaction,Variant
1,disrupting interaction,MASSLNEDPEGSRITYVKGDLFACPKTDSLAHCISEDCRMGAGIAVLFKKKFGGVQELLNQQKKSGEVAVLKRDGRYIYYLITRKRASHKPTYENLQKSLEAMKSHCLKNGVTDLSMPRIGCGLDRLQWENVSAMIEEVFEATDIKITVYTL
